Patent publication US20160194355A1 (MARUHA NICHIRO, published 2016)

Each binder was assayed against dipeptidyl peptidase-IV (DPPIV) (Human, recombinant; manufactured by Biomol) (Human, UniProt P27487 39-766, limits assumed) (assay: cell-based or functional assay).
dipeptidyl peptidase-IV (DPPIV) (Human, recombinant; manufactured by Biomol), sequence (P27487 39-766 limits assumed): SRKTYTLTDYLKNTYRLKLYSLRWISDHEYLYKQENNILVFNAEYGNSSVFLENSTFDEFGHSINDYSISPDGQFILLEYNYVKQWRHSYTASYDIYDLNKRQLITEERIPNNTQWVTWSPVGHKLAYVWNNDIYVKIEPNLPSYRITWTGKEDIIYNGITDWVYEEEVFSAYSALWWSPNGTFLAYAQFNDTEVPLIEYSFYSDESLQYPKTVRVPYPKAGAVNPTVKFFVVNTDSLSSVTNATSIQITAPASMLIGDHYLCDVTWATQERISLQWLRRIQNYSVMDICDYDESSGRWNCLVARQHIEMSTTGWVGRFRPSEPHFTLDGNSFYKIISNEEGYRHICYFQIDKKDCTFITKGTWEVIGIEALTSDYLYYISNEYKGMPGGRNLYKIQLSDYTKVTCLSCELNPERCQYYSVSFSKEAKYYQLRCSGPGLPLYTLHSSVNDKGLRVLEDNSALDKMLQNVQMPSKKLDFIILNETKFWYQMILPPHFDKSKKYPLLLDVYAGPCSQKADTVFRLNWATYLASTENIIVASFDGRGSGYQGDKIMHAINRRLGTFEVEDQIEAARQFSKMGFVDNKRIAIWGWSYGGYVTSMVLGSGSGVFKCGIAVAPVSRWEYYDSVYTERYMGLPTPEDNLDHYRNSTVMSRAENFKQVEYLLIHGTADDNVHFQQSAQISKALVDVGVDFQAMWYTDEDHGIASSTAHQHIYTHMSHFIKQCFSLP

IC50 Value (µM), DPPIV inhibitory activity (enzyme activity on H-Gly-Pro-AMC substrate, fluorescence) | Binder
46 µM | LPVL [Leu-Pro-Val-Leu (LPVL)]
> 100 µM | WIP [Trp-Ile-Pro (WIP)]
> 100 µM | VLP [Val-Leu-Pro (VLP)]
19 µM | VPL [Val-Pro-Leu (VPL)]
3 µM | VPI [Val-Pro-Ile (VPI)]
> 100 µM | VIP [Val-Ile-Pro (VIP)]
40 µM | FPVG [Phe-Pro-Val-Gly (FPVG)]
> 100 µM | WLP [Trp-Leu-Pro (WLP)]
> 100 µM | FP [Phe-Pro (FP)]

Continued, binder first:

Binder | IC50 Value (µM), DPPIV inhibitory activity (enzyme activity on H-Gly-Pro-AMC substrate, fluorescence)
LP [Leu-Pro (LP)] | > 100 µM
IPL [Ile-Pro-Leu (IPL)] | 26 µM
LPL [Leu-Pro-Leu (LPL)] | 82 µM
IVP [Ile-Val-Pro (IVP)] | > 100 µM
IPI [Ile-Pro-Ile (IPI)] | 3 µM
IP [Ile-Pro (IP)] | 66 µM
LPF [Leu-Pro-Phe (LPF)] | 88 µM
IIP [Ile-Ile-Pro (IIP)] | > 100 µM
